Our source for the Kd values is article PMC10167749, “The catalytic domains of Streptococcus mutans glucosyltransferases: a structural analysis” (Acta Crystallographica. Section F, Structural Biology …, 2023).

One may read the Kd as the free concentration of one partner at which half of the binding sites on the other are occupied at equilibrium, for simple one-to-one binding. Low values mean higher affinity, high ones lower affinity.

The target of the test is T1, catalytic domain of Streptococcus mutans GtfB (GtfB-CD) (Streptococcus mutans (UA159), UniProt P08987 191-1051).
T1 construct: Glucosyltransferase GtfB (GTF-I), Streptococcus mutans UA159, catalytic domain, residues 191-1051 (UniProt P08987); Cloned between NcoI and XhoI of pET-23d; also called GTF-I; source: E. coli BL21(DE3), pET-23d, purified (HisTrap FF, Mono Q, Superdex 200)
T1 sequence: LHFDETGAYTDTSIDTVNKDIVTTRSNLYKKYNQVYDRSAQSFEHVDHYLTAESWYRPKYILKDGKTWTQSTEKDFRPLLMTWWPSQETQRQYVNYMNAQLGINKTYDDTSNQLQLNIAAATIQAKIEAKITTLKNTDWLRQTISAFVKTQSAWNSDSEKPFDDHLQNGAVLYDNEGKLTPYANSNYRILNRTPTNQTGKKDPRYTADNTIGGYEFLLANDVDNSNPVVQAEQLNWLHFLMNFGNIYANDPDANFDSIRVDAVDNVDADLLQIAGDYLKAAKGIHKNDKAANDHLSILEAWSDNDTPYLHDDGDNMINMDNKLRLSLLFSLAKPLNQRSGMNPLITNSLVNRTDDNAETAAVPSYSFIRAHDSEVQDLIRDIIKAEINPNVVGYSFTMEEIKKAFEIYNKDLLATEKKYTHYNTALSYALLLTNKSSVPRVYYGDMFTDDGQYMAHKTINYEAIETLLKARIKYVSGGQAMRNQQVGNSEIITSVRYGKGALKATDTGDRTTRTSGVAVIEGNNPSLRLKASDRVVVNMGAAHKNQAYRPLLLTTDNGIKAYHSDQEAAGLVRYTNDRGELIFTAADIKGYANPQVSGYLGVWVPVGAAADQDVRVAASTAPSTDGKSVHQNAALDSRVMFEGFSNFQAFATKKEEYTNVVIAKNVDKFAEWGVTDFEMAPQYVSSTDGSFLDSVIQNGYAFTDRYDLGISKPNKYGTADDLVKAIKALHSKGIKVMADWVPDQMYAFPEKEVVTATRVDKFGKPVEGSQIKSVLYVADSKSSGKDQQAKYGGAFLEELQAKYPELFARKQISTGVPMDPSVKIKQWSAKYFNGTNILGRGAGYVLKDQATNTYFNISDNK
Description: SPR; Biacore T200; iSRCR1 immobilised on a CM5 chip by amine coupling; analyte GtfB-CD 2-8 uM in 20 mM HEPES pH 7.4, 150 mM NaCl, 1 mM CaCl2 at 20 ul/min; each concentration in triplicate; kinetic fitting. To be noted: both partners purified. A general note: SPR reads the build-up and loss of mass on a sensor chip optically.

B1: recombinant scavenger receptor cysteine-rich domain 1 of Gp340 expressed in insect cells (iSRCR1) (domain or fragment)
chain: not shown
notes: Gp340 (salivary agglutinin), scavenger receptor cysteine-rich (SRCR) domain 1; source: recombinant, expressed in insect cells
B1: binding was put at a Kd of 509 nM.
